# From US20230067757A1 (NOVAROCK BIOTHERAPEUTICS, published 2023)
# Numbering of substitutions follows the chain as printed.
# B1: Hu-13 (antibody, V domains shown)
# VH: EVQLLESGGGLVQPGGSLRVACAASGFPLRSYAMSWVRQAPGKGLEWVSVTSGSGGSTYYADSVKGRFTISRDNSKSTVYLQMNSLRAEDTAVYYCAKDRGYDILTGYYDYFYGMDVWGQGTTVTVSS
# VL: DIQMTQSPSSLSASVGDRVTITCRASQGIRNDLGWFQQKPGKAPKRLIYAASSLQSGVPSRFSGSGSGTEFTLTISSLQPEDFATYYCLQHNSYPYTFGQGTKLEIK
# B2: Hu-11 (antibody, V domains shown)
# VH: QVHLVQSGAEVKKPGASVKVSCKASGYTFTSYYIHWVRQAPGQGLEWMGIINPSGGNTIYAQKFQGRVTMTRDTSTTTVYVELSSLRSEDTAVYYCARDHYDILTGYYPLYYGMDVWGQGTTVTVSS
# VL: SYELTQPLSVSVALGQTARITCGGNNIGSKNVHWYQQKPGQAPVLVIYRDSNRPSGIPERFSGSKSGNTATLTISRAQAGDEADYYCQVWDSSTAVFGGGTQLTAL
# B3: Hu-7 (antibody, V domains shown)
# VH: EVQLLESGGGLVQPGGSLRLSCAASGFTFSSYVMSWVRQAPGKGLEWVSTISGSGGSTYYADSVKDRFTISRDNSKNTLYLQMNSLRAEDTAVYYCGKPLLGGTGLWDYWGQGTLVTVSS
# VL: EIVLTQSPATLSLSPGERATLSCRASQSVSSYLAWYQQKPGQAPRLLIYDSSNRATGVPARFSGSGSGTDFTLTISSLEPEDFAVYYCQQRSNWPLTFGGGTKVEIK
# B4: Hu-10 (antibody, V domains shown)
# VH: EVQLSESGGALVQPGESLRLSCAASGFTFSSYAMTWVRQAPGKGLEWVSSLSGSGRSTYYAASIKGRFTISRDNSKNTLYLQMSSLRAEDTAIYYCAKSLSYYHYYFDYWGQGTLVTVSS
# VL: DIQLTQSPSFLSASVGDRVPITCRASQDISNYLAWYQQKPGKAPKLLIYSASTLQSGVPSRFSGSGSGTEFTLTISSLQPEDFASYHCQQVKTYPLTFGGGTKVEIK
# B5: Hu-9 (antibody, V domains shown)
# VH: B4 VH with S5L, A10G, E16G, Y32F, I64M, S84N, S119T
# VL: B4 VL with D28G, Y32F, K45E, Y49H, S77N, E81Q, S85T, H87Y, K92N, T93S
# B6: Hu-1 (antibody, V domains shown)
# VH: QVQLVESGGGVVQPGRSLRLSCAASGFTFSNYGMYWVRQAPGKGLEWVAVIWYDGSNKNYADSVKGRFTISRDNSKNTLNLQMNSLRAEDTAVYYCARRGYDILTGYDYYGMDVWGQGTTVTVSA
# VL: QTVVTQEPSFSVSPGGTVTLTCGLSSGSVSTSYYPSWYQQTPGQAPRTLIYRTNTRSSGVPDRFSGSILGNKAALTISGAQAPDESNYYCVLYMGSGIWVFGGGTKLTVL
# B7: Hu-8 (antibody, V domains shown)
# VH: QVQLVESGGGVVQPGRSLRLSCAASGFTFSSYGMHWVRQAPGKGLEWVAVIWYDGSNKKYADSVKGRFTISRDNSKNTLYLQMNSLRAEDTAVYYCARRYDVLTAYPYYFYYNMDVWGPGTTVTVSS
# VL: B6 VL with S25N, R52S, S78T, P83D, N87D
# B8: Hu-4 (antibody, V domains shown)
# VH: B6 VH with N31F, Y35H, A61V, N80Y, G100N, Y107R, A125S
# VL: B6 VL with S25N, R52S, S78T, P83D, E85D, N87D
# B9: Hu-2 (antibody, V domains shown)
# VH: QLRLQESGPGLVKPSETLSLTCAVSGGSISSSRSYWGWIRQPPGKGLELIGSIYYSGSTYYNPSLKSRVTISVDTSKNQFSLKLTSVTATDTAVYYCARQTLRYFDWLSPFDYWGQGTLVTVSS
# VL: EIVMTQSPATLSLSPGERATLSCRASQSVRSNYLSWYQQKPGQAPRLLIYGTSTRATGIPARFSGSGSGTDFTLTISSLQPEDFAVYFCQQDYNLPITFGQGTRLEIK
# B10: Hu-6 (antibody, V domains shown)
# VH: QMQLRESGPGLVKPSETLSLTCTVSNGPISSSRYYWGWIRQPPGKGLEWIGSFHYSGSTYYKPSLKSRVTISADTSKNQLSLELSSVTAADTAVYYCARLVLRYFDWLGYFDLWGRGTLVTVSS
# VL: B9 VL with I2F, V29I, T52A, G58A, F88Y
# B11: Hu-12 (antibody, V domains shown)
# VH: EVRLLESGGGLVQPGGSLRLSCIASGFTFSSYVMSWVRQAPGKGLEWVSGISGSGGSTYYADSVKGRFTISRDNSKNTLYLQISSLRAEDTAVYYCTKAPTLWWFFDLWGRGTLVTVSS
# VL: DIQVTQSPSFLSASVGDRVTITCRASQGIRSYLAWYQQKPGKAPKLLIYAASTLQSGVPSRFSGSGSGTEFTLTISSLLPEDFATYYCQQLNSYPLTFGGGTKVEIK
# B12: Ms14 (antibody, V domains shown)
# VH: EVQLQQSGPELVKPGASVKMSCKASGYTFTRYIIHWVKQKPGQGLEWIGYFNPYNDDSKNNEKFKGKATLTSDKSSSTAYMEISSLTSEDSAVYYCAKLRQERIAYWGQGTLVTVSA
# VL: DIQMNQSPSSLSASLGDTITITCHVSQNIDVWLSWYQQKPGNIPKLLIYKASNLHTGVPSRFSGSGSGTGFTLTISSLQPEDIATYYCQQGQSYPLTFGAGTKLELK
# B13: Ms11 (antibody, V domains shown)
# VH: QVQLQQSGAELVKPGASVKMSCKAFGYTFTTYSIEWMKQNHGKSLEWIGNFRPYNDDTKCNEKFKGKAKLTVEKSSSTVYLELSRLTSDDSAVYYCARGSYGNSFAYWGQGTLVTVSA
# VL: DIVMTQSPSSLSVSAGEKVTMSCKSSQSLLNSGNQKNYLAWYQQKPGQPPKLLIYGASTRESGVPDRFTGSGSGTDFTLTISSVQAEDLAVYYCQNDHSYPFTFGSGTKLEIK
# Molecular target: human claudin 18 isoform 2 (claudin 18.2) (human)
# Experiment: cell-based or functional assay
row,"ADCC EC50, CHO-18.2 target cells (mouse FcγRIV reporter bioluminescence)",Binder
1,1.17 nM,B1
2,1.51 nM,B2
3,3.52 nM,B3
4,1.25 nM,B4
5,1.1 nM,B5
6,0.77 nM,B6
7,1.42 nM,B7
8,2.39 nM,B8
9,3.51 nM,B9
10,4.8 nM,B10
11,2.26 nM,B11

# Molecular target: human claudin 18 isoform 2 (claudin 18.2) (human)
# Experiment: cell-based or functional assay
# Remark: another data set of the same source
row,Binder,"endocytosis derived cell toxicity EC50, CHO-18.2 cells (anti-IgG Fc-MMAF co-internalization)"
1,B12,1.02 nM
2,B13,1.3 nM

# Molecular target: human claudin 18 isoform 2 (claudin 18.2) (human)
# Experiment: cell-based or functional assay
# Remark: another data set of the same source
row,Binder,"endocytosis derived cell toxicity EC50, CHO-18.2 cells (anti-IgG Fc-MMAF co-internalization)"
1,B1,2.16 nM
2,B2,1.31 nM
3,B3,1.65 nM
4,B4,0.85 nM
5,B5,0.85 nM
6,B6,1.61 nM
7,B7,1 nM
8,B8,1.55 nM
9,B9,1.43 nM
10,B10,1.69 nM
11,B11,2.01 nM

# Molecular target: T1, human claudin 18 isoform 1 (claudin 18.1) (human, UniProt P56856 1-261)
# T1 construct: Recombinant on transfected CHO cells (CHO-CLDN18.1); also called CLDN18.1
# T1 sequence (P56856 whole entry, canonical isoform): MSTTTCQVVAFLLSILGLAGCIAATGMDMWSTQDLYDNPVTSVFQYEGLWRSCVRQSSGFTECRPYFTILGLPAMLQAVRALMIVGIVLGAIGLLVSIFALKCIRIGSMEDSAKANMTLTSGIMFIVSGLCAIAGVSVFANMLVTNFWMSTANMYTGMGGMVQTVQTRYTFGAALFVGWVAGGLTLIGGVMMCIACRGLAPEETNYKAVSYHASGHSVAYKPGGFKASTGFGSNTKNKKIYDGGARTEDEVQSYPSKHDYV
# Experiment: imaging, CHO-CLDN18.1 cells, single concentration (FIG. 3A)
# Method: (§1) The specific cellular binding affinity of anti-Claudin18.2 antibodies was tested on CHO-CLDN18.2 (transfected CHO cell expressing recombinant human CLDN18.2) and CHO-CLDN18.1 (transfected CHO cell expressing recombinant human CLDN18.1) cells. The cells were plated in complete media containing F12 with 10% FBS, then incubated overnight at 37° C., anti-Claudin18.2 antibodies were serial diluted and added to the assay plates, incubated at 4° C. for 2 hours, followed by fixing cells and further staining the cells for 30 minutes with Alexa Fluor® 488 Goat Anti-Human IgG (H+L) secondary antibody, invitrogen Cat #A-11013 for detection. The binding was assessed by imaging the cells and quantifying the fluorescence intensity using a Biotek Cytation.
row,binding result,Binder
1,no binding (tested: 10 µg/ml),B12

# Molecular target: T2, human claudin 18 isoform 2 (claudin 18.2) (human)
# T2 construct: Recombinant on transfected CHO cells (CHO-CLDN18.2) or endogenous on tumor cell lines PATU8988S, NUGC-4, KATOIII; the cell line is named under assay; also called CLDN18.2
# Experiment: immunofluorescence imaging, CHO-CLDN18.2 cells, serial dilution
# Method: as §1
row,EC50,Binder
1,5.6 nM,B1
2,17 nM,B2
3,1 nM,B3
4,1.5 nM,B4
5,1.1 nM,B5
6,3.6 nM,B6
7,3.7 nM,B7
8,5.2 nM,B8
9,1.1 nM,B12
10,1.5 nM,B9
11,1.5 nM,B10
12,3.3 nM,B13
13,1.2 nM,B11

# Molecular target: T2, human claudin 18 isoform 2 (claudin …)
# Experiment: imaging, PATU8988S cells (endogenous CLDN18.2); ++++ = EC50 less than 2 nM
# Method: (§2) Tumor cells were plated in complete media containing RPMI1640 with +10% FBS, then incubated overnight at 37° C., Claudin18.2 antibodies were serial diluted and added to the assay plates, incubated at 4° C. for 2 hours, followed by fixing cells and further staining the cells for 30 minutes with Alexa Fluor® 488 Goat Anti-Human IgG (H+L) secondary antibody (invitrogen Cat #A-11013) for detection. The binding was assessed by imaging the cells and quantifying the fluorescence intensity using a Biotek Cytation.
row,EC50,Binder
1,< 2 nM,B3
2,< 2 nM,B4
3,< 2 nM,B5
4,< 2 nM,B11

# Molecular target: T2, human claudin 18 isoform 2 (claudin …)
# Experiment: imaging, PATU8988S cells (endogenous CLDN18.2); +++ = EC50 between 2 nM and 20 nM
# Method: as §2
row,EC50,Binder
1,2 to 20 nM,B9
2,2 to 20 nM,B10

# Molecular target: T2, human claudin 18 isoform 2 (claudin …)
# Experiment: imaging, PATU8988S cells (endogenous CLDN18.2); ++ = EC50 between 20 nM and 100 nM
row,EC50,Binder
1,20 to 100 nM,B12
2,20 to 100 nM,B13

# Molecular target: T2, human claudin 18 isoform 2 (claudin …)
# Experiment: as above
# Remark: another data set of the same source
# Method: as §2
row,EC50,Binder
1,20 to 100 nM,B1
2,20 to 100 nM,B2
3,20 to 100 nM,B6
4,20 to 100 nM,B7
5,20 to 100 nM,B8

# Molecular target: T1, human claudin 18 isoform 1 (claudin …)
# Experiment: immunofluorescence imaging on CHO cells expressing human CLDN18.1, antibody at 10 µg/ml
# Method: as §1
row,binding result,Binder
1,no binding (tested: 10 µg/ml),B3
2,no binding (tested: 10 µg/ml),B4
3,no binding (tested: 10 µg/ml),B5
4,no binding (tested: 10 µg/ml),B6
5,no binding (tested: 10 µg/ml),B8
6,no binding (tested: 10 µg/ml),B9
7,no binding (tested: 10 µg/ml),B13
8,no binding (tested: 10 µg/ml),B11
